This note sets out measurements from US20220333113.

The term Kd denotes a measure of binding affinity in units of concentration.

The target in series [1] is T1, RIG-I N668A (Homo sapiens) (UniProt O95786).
T1 sequence: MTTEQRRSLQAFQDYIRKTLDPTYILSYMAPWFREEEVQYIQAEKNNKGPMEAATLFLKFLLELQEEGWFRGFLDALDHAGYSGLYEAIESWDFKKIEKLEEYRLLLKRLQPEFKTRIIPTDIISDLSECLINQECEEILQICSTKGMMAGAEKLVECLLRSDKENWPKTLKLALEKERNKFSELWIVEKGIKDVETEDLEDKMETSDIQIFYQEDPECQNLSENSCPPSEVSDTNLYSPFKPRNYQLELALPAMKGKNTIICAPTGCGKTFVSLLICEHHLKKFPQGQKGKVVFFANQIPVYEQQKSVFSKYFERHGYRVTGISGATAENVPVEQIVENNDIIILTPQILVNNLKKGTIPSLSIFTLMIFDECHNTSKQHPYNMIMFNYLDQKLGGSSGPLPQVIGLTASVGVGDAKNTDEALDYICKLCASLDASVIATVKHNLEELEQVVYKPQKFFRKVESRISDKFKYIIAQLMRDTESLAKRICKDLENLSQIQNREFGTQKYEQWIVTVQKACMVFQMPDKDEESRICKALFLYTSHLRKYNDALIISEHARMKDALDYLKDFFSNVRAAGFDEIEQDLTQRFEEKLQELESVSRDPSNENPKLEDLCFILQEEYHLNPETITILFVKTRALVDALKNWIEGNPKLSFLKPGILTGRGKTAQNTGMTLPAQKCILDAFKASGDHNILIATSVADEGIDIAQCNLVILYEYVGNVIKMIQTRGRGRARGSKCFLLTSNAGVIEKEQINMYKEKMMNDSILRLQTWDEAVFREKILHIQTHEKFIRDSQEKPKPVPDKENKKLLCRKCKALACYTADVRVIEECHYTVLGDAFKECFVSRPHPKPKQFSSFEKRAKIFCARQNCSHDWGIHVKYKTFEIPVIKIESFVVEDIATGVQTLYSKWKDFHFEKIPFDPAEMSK
In words: filter. Conditions: J = PPdU at every J; SB18T0.01 + 1 mM DTT, 37 C.

The target in series [2] is T2, RIG-I helicase domain (aa 229-793) (Homo sapiens) (UniProt O95786).
T2 sequence: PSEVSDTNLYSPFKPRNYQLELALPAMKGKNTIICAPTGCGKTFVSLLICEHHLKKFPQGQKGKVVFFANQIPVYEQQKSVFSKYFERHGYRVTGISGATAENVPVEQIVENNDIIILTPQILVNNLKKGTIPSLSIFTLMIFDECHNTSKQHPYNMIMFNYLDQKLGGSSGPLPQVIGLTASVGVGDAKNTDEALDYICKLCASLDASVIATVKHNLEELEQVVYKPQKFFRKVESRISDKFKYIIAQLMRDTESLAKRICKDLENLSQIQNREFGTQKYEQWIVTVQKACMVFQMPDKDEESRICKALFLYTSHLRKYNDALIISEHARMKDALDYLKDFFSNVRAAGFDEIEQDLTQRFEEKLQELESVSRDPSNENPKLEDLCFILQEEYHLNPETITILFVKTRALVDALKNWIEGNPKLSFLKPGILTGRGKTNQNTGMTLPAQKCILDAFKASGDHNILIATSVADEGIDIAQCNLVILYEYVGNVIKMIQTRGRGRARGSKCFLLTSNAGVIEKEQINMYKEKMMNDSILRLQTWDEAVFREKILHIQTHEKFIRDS
Description: filter. Particulars: J = PPdU at every J; SB18T0.01 + 1 mM DTT, 37 C.

As for “ATCTCTGTGTCATGTGTTTTAATGTCAGTTTAATGATGAGG [14832-55_8]”, the Kd in series [1] came out at 0.11 nM; in series [2] it was 10 nM.
